From patent CN115703833A (BOAOXIN BIOTECHNOLOGY NANJING CO LTD, dated 2023) come the findings set out here.

The target in test [1] is T1, 人CD47 (表面过表达人CD47的293F细胞) (human, UniProt Q08722 19-323).
T1 construct: whole, on cells; also called 表面过表达人CD47的稳定细胞系293F
The test can be described thus: flow cytometry on 293F cells overexpressing human CD47.

In test [2] the target is T2, 重组人CD47-his蛋白 (ACRO biosystems, cat#CD7-H5227, MW 15.6 kDa) (human, UniProt Q08722 19-139, biotin-labelled in the ELISAs (position not given); unlabelled in Biacore).
T2 construct: also called 人CD47蛋白; 人CD47-生物素; not shown: his tag
The test can be described thus: Biacore T200 SPR; antibody captured by goat anti-mouse IgG on a CM5 chip, CD47-his as analyte.

T1 sequence (Q08722 19-323): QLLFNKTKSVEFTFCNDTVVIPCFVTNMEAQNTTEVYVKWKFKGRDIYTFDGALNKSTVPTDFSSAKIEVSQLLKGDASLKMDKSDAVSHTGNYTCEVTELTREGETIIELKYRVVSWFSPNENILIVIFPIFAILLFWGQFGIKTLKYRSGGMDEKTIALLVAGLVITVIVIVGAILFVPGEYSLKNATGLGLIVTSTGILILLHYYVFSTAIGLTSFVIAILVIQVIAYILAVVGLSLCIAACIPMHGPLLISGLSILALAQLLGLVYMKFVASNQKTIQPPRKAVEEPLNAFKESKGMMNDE
T2 sequence (Q08722 19-139 limits assumed): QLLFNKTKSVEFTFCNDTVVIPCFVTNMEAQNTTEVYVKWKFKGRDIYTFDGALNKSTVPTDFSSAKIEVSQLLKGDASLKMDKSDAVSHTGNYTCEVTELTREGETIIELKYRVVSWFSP

B1: 本发明的单克隆抗体1D5 (小鼠抗CD47单克隆抗体) (antibody, V domains shown)
VH: EVQLQQSGAELVRSGASVKLSCTASGFNIKDYYMSWVRQRPEQGLEWIGWIDPKNGDTAYDPKFQGKATMTADTSSNTAYLQFSSLTSEDTADYYCNAGGRGGFAYWGQGTLVTVSA
VL: DVLMTQTPLSLPVSLGDQASISCRSNQSIVHSNGYTYLEWYLQKPGQSPKLLIYKVSNRFSGVPDRFSGSGSGTDFTLRISRVEAEDLGVYYCFQGSHVPRTFGGGTKLEIK
notes: Tested as a purified mouse monoclonal antibody from a hybridoma
For B1, the binding result in test [1] and in test [2] was “binds” each time.
